The values below come from article PMC9388126 (Proceedings of the National Academy of Sciences of the …, 2022).

Data set [1] concerns the target clawed frog GNPTG (gamma subunit of GNPT) (clawed frog (Xenopus laevis)). The experiment in a line: crystal structure.
Data set [2] deals with the molecule itself. The experiment in a line: crystal structure.

On to “clawed frog GNPTG (gamma subunit of GNPT) (natural protein)”, for which the stoichiometry N in data set [1] amounted to 2.

B1: zebrafish GNPTAB minimal construct (catalytic and EF-hand domains) (domain or fragment)
chain: EVVVEWSRDQYHVLFDSYRDNVAGKSFQTRLCLPMPIDVVYTWVNGTDPKLIKEVTELKRSKRDPLIPECQGKQTPEKDKCYRDDNTASRFEDNEELRYSLRSIEKHAPWVRHIFIVTNGQIPSWLNLDNPRVSVVTHQDIFQNQTHLPTFSSPAIETHIHRIPGLSQKFIYLNDDVMFGKDVWPDDFYSHSKGQKVYLTWPVPNDTFADSLRYVNRLLNAQFGFTSRKVPAHMPHMIDRLIMQELQDTFPQEFDKTSSHRVRHSEDMQFAFSYFYFLMSAVQQLNISEVFDEIDTDHSGVLSDREIRTLATRIHELPLSLQDLTSLEQMLINCSKSLPSNLTHLHAVSPTQEAYYDPSMPPVTKGLVIHCKPITERIHKAFKDQNKYKFEIMGEEEIAFKMIRTNVSHVVGQLDDIRKNPRKFICLNDNIDHIHKDAGTVKAVLRDFYESMFPLPSQFELPREYRNRFLHMTELQEWRIYRDKL
modifications: N-linked glycans (up to five visible on each chain)
B1: the “stoichiometry N” value in data set [2] was found to be 2.
